Results taken from article doi:10.1101/2021.12.21.473719 (bioRxiv, 2021).

Molecular target: T1, POPDC1-Myc (Popeye domain-containing protein 1, Myc-tagged) (mouse, UniProt Q9ES83 1-358)
T1 sequence (looked up): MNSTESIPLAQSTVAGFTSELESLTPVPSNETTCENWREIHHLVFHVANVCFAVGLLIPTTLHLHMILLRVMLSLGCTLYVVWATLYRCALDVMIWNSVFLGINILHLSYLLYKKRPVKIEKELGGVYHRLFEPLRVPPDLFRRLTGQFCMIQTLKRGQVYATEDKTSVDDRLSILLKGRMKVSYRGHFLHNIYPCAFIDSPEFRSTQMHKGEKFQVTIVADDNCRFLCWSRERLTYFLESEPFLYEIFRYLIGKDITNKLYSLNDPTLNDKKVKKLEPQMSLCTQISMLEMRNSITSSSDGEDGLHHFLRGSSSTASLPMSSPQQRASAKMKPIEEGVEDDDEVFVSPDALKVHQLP
Experiment: co-IP

fold Ca2+/calmodulin-stimulated AC activity over IgG controls: 1.59 fold
B1: AC1 (adenylyl cyclase type 1), non-tagged (enzyme)
chain: not shown
